Measured values: patent US20080280828A1

What was measured:
[1] = molecular target: rat recombinant IgE (Serotech) (rat); experiment: SPR (BIAcore 2000); ratio of RBA on IgE to RBA on guinea pig IgG
[2] = molecular target: guinea pig IgG (Sigma) (guinea pig); experiment: SPR (BIAcore 2000); RBA further normalised to amount of protein against fSGED6
[3] = molecular target: rabbit IgG F(ab')2 fragment (ICN) (rabbit); experiment: as above
[4] = molecular target: rat recombinant IgE (Serotech) (rat); experiment: as above
[5] = molecular target: human IgG Fc fragment (ICN) (human); experiment: as above
[6] = molecular target: guinea pig IgG (Sigma) (guinea pig); experiment: SPR (BIAcore 2000), Ig immobilised on CM5 chip, tick sample as analyte
[7] = molecular target: rabbit IgG F(ab')2 fragment (ICN) (rabbit); experiment: as above
[8] = molecular target: rat recombinant IgE (Serotech) (rat); experiment: as above
[9] = molecular target: human IgG Fc fragment (ICN) (human); experiment: as above
[10] = molecular target: guinea pig IgG (Sigma) (guinea pig); experiment: SPR (BIAcore 2000); normalised to binding of fSGED6 to IgG, corrected for relative molar amount of ligand
[11] = molecular target: rabbit IgG F(ab')2 fragment (ICN) (rabbit); experiment: as above
[12] = molecular target: rat recombinant IgE (Serotech) (rat); experiment: as above
[13] = molecular target: human IgG Fc fragment (ICN) (human); experiment: as above
[14] = molecular target: human IgG Fc fragment (ICN) (human); experiment: SPR (BIAcore 2000); ratio of RBA on Fc to RBA on F(ab')2

Chain of rat recombinant IgE (Serotech) (rat) (P01855 whole entry, the tested form may be a part): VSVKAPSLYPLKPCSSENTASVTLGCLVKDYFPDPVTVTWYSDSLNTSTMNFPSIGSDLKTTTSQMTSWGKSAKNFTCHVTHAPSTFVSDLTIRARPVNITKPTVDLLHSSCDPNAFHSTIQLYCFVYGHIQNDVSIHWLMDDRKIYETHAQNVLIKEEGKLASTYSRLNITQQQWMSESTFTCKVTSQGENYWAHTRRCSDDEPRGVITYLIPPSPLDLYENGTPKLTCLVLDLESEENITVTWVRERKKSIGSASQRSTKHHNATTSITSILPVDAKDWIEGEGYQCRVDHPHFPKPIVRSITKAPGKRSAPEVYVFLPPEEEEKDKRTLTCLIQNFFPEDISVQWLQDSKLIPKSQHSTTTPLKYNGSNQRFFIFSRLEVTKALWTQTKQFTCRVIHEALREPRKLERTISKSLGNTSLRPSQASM

Substance	RBAIgE/RBAIgG [1]	RBA/mg protein [2]	RBA/mg protein [3]	RBA/mg protein [4]	RBA/mg protein [5]	Yield-binding (RU2) [6]	Yield-binding (RU2) [7]	Yield-binding (RU2) [8]	Yield-binding (RU2) [9]	Relative binding activity (RBA) [10]	Relative binding activity (RBA) [11]	Relative binding activity (RBA) [12]	Relative binding activity (RBA) [13]	RBAFc/RBAF(ab′)2 [14]
partially fed (day 6) female tick salivary gland extract	1.2	1	0	1.3	1.1	263 RU	13 RU	283 RU	748 RU	1	0	1.3	1.1	
partially fed (day 6) male tick salivary gland extract	1.2	5.5	4.5	7.3	4.9	719 RU	823 RU	762 RU	1720 RU	2.7	2.2	3.6	2.4	1.1
partially fed (day 7), dopamine-stimulated female tick saliva	1.2	775	301	943	328	5100 RU	2770 RU	4960 RU	5830 RU	19.4	7.5	23.6	8.2	1.1
